From patent publication US20050214798A1 (WISTAR INSTITUTE OF ANATOMY AND BIOLOGY, published 2005)

Target: T1, Bin2 (Bridging INtegrator-2) (human, UniProt Q9UBW5 1-565)
T1 construct: In vitro translated in the presence of 35S-methionine from the full-length cDNA
T1 sequence: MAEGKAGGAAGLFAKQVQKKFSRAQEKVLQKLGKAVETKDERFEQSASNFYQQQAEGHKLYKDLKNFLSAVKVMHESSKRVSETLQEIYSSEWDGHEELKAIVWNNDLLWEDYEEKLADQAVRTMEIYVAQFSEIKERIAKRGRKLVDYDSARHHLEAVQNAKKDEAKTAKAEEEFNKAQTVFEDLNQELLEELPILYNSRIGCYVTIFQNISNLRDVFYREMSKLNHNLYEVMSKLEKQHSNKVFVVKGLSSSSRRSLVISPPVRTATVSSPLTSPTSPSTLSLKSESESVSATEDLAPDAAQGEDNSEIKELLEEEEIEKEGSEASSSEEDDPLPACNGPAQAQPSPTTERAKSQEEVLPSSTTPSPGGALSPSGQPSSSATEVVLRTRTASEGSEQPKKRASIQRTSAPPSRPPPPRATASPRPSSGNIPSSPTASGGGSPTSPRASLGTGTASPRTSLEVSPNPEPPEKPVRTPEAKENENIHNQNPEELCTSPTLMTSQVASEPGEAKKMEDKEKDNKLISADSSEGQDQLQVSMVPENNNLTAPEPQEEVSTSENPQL
Assay: co-immunoprecipitation of in vitro translated proteins, deletion mutant
Source text: Stable complexes have been reported in yeast between RVS161 and RVS167 and in brain between amphiphysin and brain-specific splice isoforms of Bin1 [Navarro et al., Biochim. Biophys. Acta, 1343: 187-192 (1997); Wigge et al., Mol. Biol. Cell 8: 2003-2015 (1997)]. Since Bin1 is expressed in hematopoietic cells, whether Bin2 and Bin1 could also form a stable biochemical complex was investigated. For coimmunoprecipitation experiments, Bin1 was in vitro translated in the presence or absence of Bin2 and complex formation was assessed by SDS-PAGE and fluorography after immunoprecipitation with the Bin1 monoclonal antibody 99D [Wechsler-Reya et al., Cancer Res. 57: 3258-3263 (1997)].
Other deletion mutants of Bin1 lacking the so-called Unique central region, the Myc-binding domain, or the SH3 domain, interacted with Bin2 with the same efficiency as wild-type Bin1 (data not shown). It was concluded that Bin1 and Bin2 formed a BAR domain-dependent complex in cells.

- binding result: no binding
B1: Bin1 deletion mutant Δ1-122 (other)
chain: LLTMDTYLGQFPDIKSRIAKRGRKLVDYDSARHHYESLQTAKKKDEAKIAKAEEELIKAQKVFEEMNVDLQEELPSLWNSRVGFYVNTFQSIAGLEENFHKEMSKLNQNLNDVLVGLEKQHGSNTFTVKA
